Measurements from article doi:10.1101/857136, “Structural characterization of an intermediate reveals a unified mechanism for the CLC Cl^−/H^+ transport cycle” (bioRxiv, 2019).

Target: the molecule itself
Test: crystal structure; lipidic cubic phase (monoolein with 10% cholesterol), without any antibody Fab fragment; 16 °C; 100 mM Tris pH 8.5, 100 mM sodium malonate, 30% PEG 400, 2.5% MPD; 2.6 Å

B1: CLC-ec1 QQQ mutant (E148Q/E203Q/E113Q) (natural protein)
chain: MKTDTPSLETPQAARLRRRQLIRQLLERDKTPLAILFMAAVVGTLVGLAAVAFDKGVAWLQNQRMGALVHTADNYPLLLTVAFLCSAVLAMFGYFLVRKYAPEAGGSGIPEIQGALEDQRPVRWWRVLPVKFFGGLGTLGGGMVLGRQGPTVQIGGNIGRMVLDIFRLKGDEARHTLLATGAAAGLAAAFNAPLAGILFIIEQMRPQFRYTLISIKAVFIGVIMSTIMYRIFNHEVALIDVGKLSDAPLNTLWLYLILGIIFGIFGPIFNKWVLGMQDLLHRVHGGNITKWVLMGGAIGGLCGLLGFVAPATSGGGFNLIPIATAGNFSMGMLVFIFVARVITTLLCFSSGAPGGIFAPMLALGTVLGTAFGMVAVELFPQYHLEAGTFAIAGMGALLAASIRAPLTGIILVLEMTDNYQLILPMIITGLGATLLAQFTGGKPLYSAILARTLAKQEAEQLARSK
notes: CLC-ec1, prokaryotic CLC Cl-/H+ exchange transporter, with glutamines in place of Gluex (E148), Gluin (E203) and E113; The final crystallographic model holds all residues except those of helix A (no density); PDB 1ots is the wild-type parent used as search model; also called QQQ protein
binding result: binds
